This test has as its target denatured collagen type-IV. Kind of test: cell-based or functional assay.

Bounds are passed on as bounds.

B1: Humanized anti-HU177 antibody (antibody, human IgG1, kappa, V domains shown)
VH: QVTLKESGPALVKPTQTLTLTCTFSGFSLSTPGMGVWWIRQPPGKALEWLADIWWDDNKYTNPSLKSRLTISKDTSKNQVVLTMTNMDPVDTATYYCARRANYGNPYYAQDYWGQGTTVTVSS
VL: DIVMTQTPLSLPVTPGEPASISCRSSQSIVSSWGNTYLEWYLQKPGQSPQLLIYKVSNRFSGVPDRFSGSGSGTDFTLKISRVEAEDVGVYYCFQGSHVPWTFGQGTKVEIKR
The molecule B1 had an inhibition of B16F10 melanoma cell adhesion to denatured collagen type-IV coated wells (antibody 100 µg/ml) of over 40%.

B2: MMAE-conjugated anti-HU177 antibody (Anti-HU177-MMAE) (antibody, V domains shown)
VH: B1 VH
VL: B1 VL
modifications: MMAE conjugated with the Perkit Antibody MMAE Conjugation Kit; conjugation sites and chain not stated
In the case of B2, the inhibition of B16F10 melanoma cell adhesion to denatured collagen type-IV coated wells (antibody 100 µg/ml) is over 40%.

(Values after patent US20240358850A1.)
